Measured values from patent US20140286957A1 (Teva, published 2014).
Read-outs that look alike come from different tables or passages of the source.

T1: Human CD1d on cells (human, UniProt P15813 20-335)
T1 sequence (looked up): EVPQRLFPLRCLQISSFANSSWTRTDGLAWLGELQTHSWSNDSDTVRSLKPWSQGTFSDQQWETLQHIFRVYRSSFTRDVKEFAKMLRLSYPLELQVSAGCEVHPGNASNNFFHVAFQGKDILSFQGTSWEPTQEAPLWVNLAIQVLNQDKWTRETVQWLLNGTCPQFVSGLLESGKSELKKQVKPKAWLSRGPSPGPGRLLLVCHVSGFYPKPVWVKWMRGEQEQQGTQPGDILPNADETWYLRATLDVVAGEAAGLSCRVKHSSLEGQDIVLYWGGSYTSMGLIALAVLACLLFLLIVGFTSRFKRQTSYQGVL

T2: CD1d tetramer loaded with α-GalCer (ProImmune) (UniProt P15813 20-301, limits assumed)
T2 construct: Bought reagent; also called fluorochrome-conjugated CD1d tetramer
T2 sequence (looked up): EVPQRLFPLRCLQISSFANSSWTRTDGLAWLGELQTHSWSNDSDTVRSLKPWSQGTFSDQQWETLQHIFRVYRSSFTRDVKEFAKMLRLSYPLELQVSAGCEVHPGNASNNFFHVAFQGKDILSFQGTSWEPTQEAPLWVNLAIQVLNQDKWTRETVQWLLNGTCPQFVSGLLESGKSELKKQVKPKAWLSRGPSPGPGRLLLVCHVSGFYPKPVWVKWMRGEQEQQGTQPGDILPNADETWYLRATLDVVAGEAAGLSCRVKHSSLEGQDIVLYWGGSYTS


Columns and labels:
Human CD1d on cells [1] = biological target: T1, Human CD1d on cells; assay: cell-based or functional assay
[2] = biological target: T2, CD1d tetramer loaded with α-GalCer …; assay: flow cytometry, inhibition of CD1d tetramer (10 nM) binding to NKTCR on J.RT3-T3.5 cells
Human CD1d on cells [3] = biological target: T1, Human CD1d on cells; assay: cell-based or functional assay; remark: listed apart in the source
[4] = biological target: Cynomolgus macaque CD1d on cells (cynomolgus macaque); assay: flow cytometry, biotinylated antibody and streptavidin-PE on cynomolgus PBMC, gated live cells
Human CD1d on cells [5] = biological target: T1, Human CD1d on cells; assay: cell-based or functional assay; remark: listed apart in the source
Human CD1d/β2M = biological target: T3, Human CD1d/β2M (human, UniProt P15813 20-301; P61769 21-119); assay: SPR, transfection supernatant
T3 construct: also called hCD1d; recombinant human CD1d

Molecule | EC50 [2] [µg/mL] | IFN-γ EC50 (C24:1 βGluCer, moDC) (Human CD1d on cells [3]) [µg/mL] | IFN-γ EC50 (primary CD14+ cells) (Human CD1d on cells [3]) [µg/mL] | IL-2 release EC50 (U-937 + NKTCR cell line) (Human CD1d on cells [3]) [µg/mL] | IL-4 EC50 (C24:1 βGluCer, moDC) (Human CD1d on cells [3]) [µg/mL] | IL-5 EC50 (C24:1 βGluCer, moDC) (Human CD1d on cells [3]) [µg/mL] | IL-13 EC50 (C24:1 βGluCer, moDC) (Human CD1d on cells [3]) [µg/mL] | IL-13 EC50 (primary CD14+ cells) (Human CD1d on cells [3]) [µg/mL] | NKT IFN-γ EC50 (moDC) (Human CD1d on cells [3]) [µg/mL] | TNF-α EC50 (C24:1 βGluCer, moDC) (Human CD1d on cells [3]) [µg/mL] | NKT IFN-γ EC50 (THP-1) (Human CD1d on cells [5]) [µg/mL] | NKT IFN-γ EC50 (moDC) (Human CD1d on cells [5]) [µg/mL] | Kd (Human CD1d/β2M) [nM] | other results
anti-CD1d antibody 42 (BD Biosciences) | 1.44 | 0.139 | 1.39 | 0.111 | 0.133 | 0.0819 | 0.0523 | 0.844 | > 1 | 0.00569 |  |  |  | NKT IFN-γ EC50 (moDC) (Human CD1d on cells [1]): 0.116 µg/mL; NKT IL-13 EC50 (moDC) (Human CD1d on cells [1]): 0.0175 µg/mL; IFN-γ EC50 (THP-1) (Human CD1d on cells [3]): 0.429 µg/mL; IL-4 EC50 (THP-1) (Human CD1d on cells [3]): 0.0761 µg/mL; IL-4 EC50 (primary CD14+ cells) (Human CD1d on cells [3]): 0.186 µg/mL; IL-5 EC50 (THP-1) (Human CD1d on cells [3]): 0.0647 µg/mL; IL-5 EC50 (primary CD14+ cells) (Human CD1d on cells [3]): 0.108 µg/mL; IL-13 EC50 (THP-1) (Human CD1d on cells [3]): 0.154 µg/mL; NKT IL-4 EC50 (moDC) (Human CD1d on cells [3]): 0.137 µg/mL; NKT IL-5 EC50 (moDC) (Human CD1d on cells [3]): 0.287 µg/mL
irrelevant specificity negative control antibody (human IgG1) |  |  |  |  |  |  |  |  |  |  |  |  |  | percent CD1d-positive cells, Donor 1 [4]: 4.14%; percent CD1d-positive cells, Donor 2 [4]: 4.22%
401.11.24 (antibody, IgG4, V domains shown, IgG4 (S228P)) VH: QVQLVGSGGGLVKPGRSLRLSCAASGFTFDDYAMHWVRQAPGKGLEWVATIIWNSAIIGYADSVKGRFIVSRDNAKNSLYLQMNSLRAEDTALYYCAKDMCSSSGCPDGYFDSWGQGTLVTVSS VL: DIQMTQSPSSVSASVGDRVTITCRASQHISSWLAWYQQKPGKAPKLLIYAASSLQSGVSSRFSGSGSGTDFTLTISSLQPEDFATYYCQQANRFPLTFGGGTKLEIKR |  |  |  |  |  |  |  |  |  |  | 0.00426 | 0.00036 | 0.644 | 
401.11.26 (antibody, IgG4, V domains shown, IgG4 (S228P)) VH: EVQLVESGGGLVQPGRSLRLSCAASGFTFDDYAMHWVRQAPGKGLEWVATIIWNSAIIGYADSVKGRFIVSRDNAKNSLYLQMNSLRAEDMALYYCAKDMCSSSGCPDGYFDSWGQGTLVTVSS VL: DIQMTQSPSSVSASVGDRVTITCRASQHISSWLAWYQQKPGKAPNLLIYAASSLQSGVPSRFSGSGSGTDFTLTISSLQPEDFATYYCQQANRFPLTFGGGTKLEIKR |  |  |  |  |  |  |  |  |  |  | 0.00325 | 0.0013 | 0.855 | 

Second part, led by results:

EC50 [2] [µg/mL] | IFN-γ EC50 (C24:1 βGluCer, moDC) (Human CD1d on cells [3]) [µg/mL] | IFN-γ EC50 (primary CD14+ cells) (Human CD1d on cells [3]) [µg/mL] | IL-2 release EC50 (U-937 + NKTCR cell line) (Human CD1d on cells [3]) [µg/mL] | IL-4 EC50 (C24:1 βGluCer, moDC) (Human CD1d on cells [3]) [µg/mL] | IL-5 EC50 (C24:1 βGluCer, moDC) (Human CD1d on cells [3]) [µg/mL] | IL-13 EC50 (C24:1 βGluCer, moDC) (Human CD1d on cells [3]) [µg/mL] | IL-13 EC50 (primary CD14+ cells) (Human CD1d on cells [3]) [µg/mL] | NKT IFN-γ EC50 (moDC) (Human CD1d on cells [3]) [µg/mL] | TNF-α EC50 (C24:1 βGluCer, moDC) (Human CD1d on cells [3]) [µg/mL] | NKT IFN-γ EC50 (THP-1) (Human CD1d on cells [5]) [µg/mL] | NKT IFN-γ EC50 (moDC) (Human CD1d on cells [5]) [µg/mL] | Kd (Human CD1d/β2M) [nM] | Molecule | other results
0.775 | 0.112 | 0.168 | 0.0773 | 0.113 | 0.0864 | 0.0668 | 0.222 | > 1 | 0.0297 |  |  |  | anti-CD1d antibody 51.1 (eBioscience) | 
 |  |  |  |  |  |  |  |  |  | 0.00142 | 0.000294 |  | 401.11.28 (antibody, IgG4, V domains shown) VH: QVQLVGSGGGLVKPGRSLRLSCAASGFTFDDYAMHWVRQAPGKGLEWVATIIWNSAIIGYADSVKGRFIVSRDNAKNSLYLQMNSLRAEDTALYYCAKDMCSSSGCPDGYFDSWGQGTLVTVSS VL: DIQMTQSPSSVSASVGDRVTITCRASQHISSWLAWYQQKPGKAPNLLIYAASSLQSGVPSRFSGSGSGTDFTLTISSLQPEDFATYYCQQANRFPLTFGGGTKLEIKR | 
